These binders were tested against T1, human CD40 expressed on CHO cells (human, UniProt P25942 21-277) (assay: FACS, CHO cells).
T1 construct: whole, on cells; also used for the reporter cells over-expressing human CD40; also called cellular CD40; CHO-CD40 cells
T1 sequence (P25942 21-277): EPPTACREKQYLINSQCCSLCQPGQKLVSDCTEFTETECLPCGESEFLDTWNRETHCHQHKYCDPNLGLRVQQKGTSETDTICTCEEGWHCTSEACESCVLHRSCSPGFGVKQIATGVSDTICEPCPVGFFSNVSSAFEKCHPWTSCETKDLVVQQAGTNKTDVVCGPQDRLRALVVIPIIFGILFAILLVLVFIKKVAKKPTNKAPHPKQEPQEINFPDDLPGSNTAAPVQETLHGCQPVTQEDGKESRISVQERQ

Binder | binding result
Ly415 (bispecific antibody, human IgG1, kappa, Ly312 HC (IgG1 mutated Fc) + Ly312 LC-TM559 scFv VL-VH) heavy: EVQLVESGGGLVQPGGSLRLSCAASGFNIKDTYMHWVRQAPGKGLEWVARIDPANGNSKYADSVKGRFTISADTSKNTAYLQMNSLRAEDTAVYYCAPFGYYVSDYAMAYWGQGTLVTVSSASTKGPSVFPLAPSSKSTSGGTAALGCLVKDYFPEPVTVSWNSGALTSGVHTFPAVLQSSGLYSLSSVVTVPSSSLGTQTYICNVNHKPSNTKVDKKVEPKSCDKTHTCPPCPAPELLGPSVFLFPPKPKDTLMISRTPEVTCVVVDVSHEDPEVKFNWYVDGVEVHNAKTKPREEQYNSTYRVVSVLTVLHQDWLNGKEYKCKVSNKALPAPIEKTISKAKGQPREPQVYTLPPSREEMTKNQVSLTCLVKGFYPSDIAVEWESNGQPENNYKTTPPVLDSDGSFFLYSKLTVDKSRWQQGNVFSCSVMHEALHNHYTQKSLSLSPGK light: DIQLTQSPSSLSASVGDRVTITCRAGESVDIFGVGFLHWYQQKPGKAPKLLIYRASNLESGVPSRFSGSGSRTDFTLTISSLQPEDFATYYCQQTNEDPYTFGQGTKVEIKRTVAAPSVFIFPPSDEQLKSGTASVVCLLNNFYPREAKVQWKVDNALQSGNSQESVTEQDSKDSTYSLSSTLTLSKADYEKHKVYACEVTHQGLSSPVTKSFNRGECGGGGSGGGGSGGGGSGGGGSDIQMTQSPSSLSASVGDRVTITCLASEDISNDLAWYQQKPGKAPKLLIYFVDRLLDGVPSRFSGSGSGTDFTLTISSLQPEDFATYYCQQSYKYPPTFGQGTKLEIKGGGGSGGGGSGGGGSGGGGSEVQLVESGGGLVQPGGSLRLSCAASGFTFTNYGLHWVRQAPGKGLEWVSSISPSGGVTYYRDSVKGRFTISRDNSKNTLYLQMNSLRAEDTAVYYCAKPFLGWGGANWIAHWGQGTLVTVSS | binds
Ly423 (bispecific antibody, human IgG1, kappa, Ly312 HC (IgG1 mutated Fc) + Ly312 LC-Ly253 scFv VL-VH) heavy: EVQLVESGGGLVQPGGSLRLSCAASGFNIKDTYMHWVRQAPGKGLEWVARIDPANGNSKYADSVKGRFTISADTSKNTAYLQMNSLRAEDTAVYYCAPFGYYVSDYAMAYWGQGTLVTVSSASTKGPSVFPLAPSSKSTSGGTAALGCLVKDYFPEPVTVSWNSGALTSGVHTFPAVLQSSGLYSLSSVVTVPSSSLGTQTYICNVNHKPSNTKVDKKVEPKSCDKTHTCPPCPAPELLGPSVFLFPPKPKDTLMISRTPEVTCVVVDVSHEDPEVKFNWYVDGVEVHNAKTKPREEQYNSTYRVVSVLTVLHQDWLNGKEYKCKVSNKALPAPIEKTISKAKGQPREPQVYTLPPSREEMTKNQVSLTCLVKGFYPSDIAVEWESNGQPENNYKTTPPVLDSDGSFFLYSKLTVDKSRWQQGNVFSCSVMHEALHNHYTQKSLSLSPGK light: not shown | binds
Ly424 (bispecific antibody, human IgG1, kappa, Ly312 HC (IgG1 mutated Fc) + Ly312 LC-Ly253 scFv VH-VL) heavy: EVQLVESGGGLVQPGGSLRLSCAASGFNIKDTYMHWVRQAPGKGLEWVARIDPANGNSKYADSVKGRFTISADTSKNTAYLQMNSLRAEDTAVYYCAPFGYYVSDYAMAYWGQGTLVTVSSASTKGPSVFPLAPSSKSTSGGTAALGCLVKDYFPEPVTVSWNSGALTSGVHTFPAVLQSSGLYSLSSVVTVPSSSLGTQTYICNVNHKPSNTKVDKKVEPKSCDKTHTCPPCPAPELLGPSVFLFPPKPKDTLMISRTPEVTCVVVDVSHEDPEVKFNWYVDGVEVHNAKTKPREEQYNSTYRVVSVLTVLHQDWLNGKEYKCKVSNKALPAPIEKTISKAKGQPREPQVYTLPPSREEMTKNQVSLTCLVKGFYPSDIAVEWESNGQPENNYKTTPPVLDSDGSFFLYSKLTVDKSRWQQGNVFSCSVMHEALHNHYTQKSLSLSPGK light: not shown | binds
Ly416 (bispecific antibody, human IgG1, kappa, Ly312 HC (IgG1 mutated Fc) + Ly312 LC-TM559 scFv VH-VL) heavy: EVQLVESGGGLVQPGGSLRLSCAASGFNIKDTYMHWVRQAPGKGLEWVARIDPANGNSKYADSVKGRFTISADTSKNTAYLQMNSLRAEDTAVYYCAPFGYYVSDYAMAYWGQGTLVTVSSASTKGPSVFPLAPSSKSTSGGTAALGCLVKDYFPEPVTVSWNSGALTSGVHTFPAVLQSSGLYSLSSVVTVPSSSLGTQTYICNVNHKPSNTKVDKKVEPKSCDKTHTCPPCPAPELLGPSVFLFPPKPKDTLMISRTPEVTCVVVDVSHEDPEVKFNWYVDGVEVHNAKTKPREEQYNSTYRVVSVLTVLHQDWLNGKEYKCKVSNKALPAPIEKTISKAKGQPREPQVYTLPPSREEMTKNQVSLTCLVKGFYPSDIAVEWESNGQPENNYKTTPPVLDSDGSFFLYSKLTVDKSRWQQGNVFSCSVMHEALHNHYTQKSLSLSPGK light: DIQLTQSPSSLSASVGDRVTITCRAGESVDIFGVGFLHWYQQKPGKAPKLLIYRASNLESGVPSRFSGSGSRTDFTLTISSLQPEDFATYYCQQTNEDPYTFGQGTKVEIKRTVAAPSVFIFPPSDEQLKSGTASVVCLLNNFYPREAKVQWKVDNALQSGNSQESVTEQDSKDSTYSLSSTLTLSKADYEKHKVYACEVTHQGLSSPVTKSFNRGECGGGGSGGGGSGGGGSGGGGSEVQLVESGGGLVQPGGSLRLSCAASGFTFTNYGLHWVRQAPGKGLEWVSSISPSGGVTYYRDSVKGRFTISRDNSKNTLYLQMNSLRAEDTAVYYCAKPFLGWGGANWIAHWGQGTLVTVSSGGGGSGGGGSGGGGSGGGGSDIQMTQSPSSLSASVGDRVTITCLASEDISNDLAWYQQKPGKAPKLLIYFVDRLLDGVPSRFSGSGSGTDFTLTISSLQPEDFATYYCQQSYKYPPTFGQGTKLEIK | binds
Ly419 (bispecific antibody, human IgG1, kappa, Ly311 HC (IgG1 mutated Fc) + Ly311 LC-Ly253 scFv VL-VH) heavy: EVQLVESGGGVVQPGRSLRLSCSASGFDFTTYWMSWVRQAPGKGLEWIGEIHPDSSTINYAPSLKDRFTISRDNAKNTLFLQMDSLRPEDTGVYFCASLYFGFPWFAYWGQGTPVTVSSASTKGPSVFPLAPSSKSTSGGTAALGCLVKDYFPEPVTVSWNSGALTSGVHTFPAVLQSSGLYSLSSVVTVPSSSLGTQTYICNVNHKPSNTKVDKKVEPKSCDKTHTCPPCPAPELLGPSVFLFPPKPKDTLMISRTPEVTCVVVDVSHEDPEVKFNWYVDGVEVHNAKTKPREEQYNSTYRVVSVLTVLHQDWLNGKEYKCKVSNKALPAPIEKTISKAKGQPREPQVYTLPPSREEMTKNQVSLTCLVKGFYPSDIAVEWESNGQPENNYKTTPPVLDSDGSFFLYSKLTVDKSRWQQGNVFSCSVMHEALHNHYTQKSLSLSPGK light: not shown | binds
Ly420 (bispecific antibody, human IgG1, kappa, Ly311 HC (IgG1 mutated Fc) + Ly311 LC-Ly253 scFv VH-VL) heavy: EVQLVESGGGVVQPGRSLRLSCSASGFDFTTYWMSWVRQAPGKGLEWIGEIHPDSSTINYAPSLKDRFTISRDNAKNTLFLQMDSLRPEDTGVYFCASLYFGFPWFAYWGQGTPVTVSSASTKGPSVFPLAPSSKSTSGGTAALGCLVKDYFPEPVTVSWNSGALTSGVHTFPAVLQSSGLYSLSSVVTVPSSSLGTQTYICNVNHKPSNTKVDKKVEPKSCDKTHTCPPCPAPELLGPSVFLFPPKPKDTLMISRTPEVTCVVVDVSHEDPEVKFNWYVDGVEVHNAKTKPREEQYNSTYRVVSVLTVLHQDWLNGKEYKCKVSNKALPAPIEKTISKAKGQPREPQVYTLPPSREEMTKNQVSLTCLVKGFYPSDIAVEWESNGQPENNYKTTPPVLDSDGSFFLYSKLTVDKSRWQQGNVFSCSVMHEALHNHYTQKSLSLSPGK light: not shown | binds

Results, then the binder that gave them:

binding result | Binder
binds | Ly414 (bispecific antibody, human IgG1, kappa, Ly312 HC (IgG1 mutated Fc)-TM559 scFv VH-VL + Ly312 LC) heavy: EVQLVESGGGLVQPGGSLRLSCAASGFNIKDTYMHWVRQAPGKGLEWVARIDPANGNSKYADSVKGRFTISADTSKNTAYLQMNSLRAEDTAVYYCAPFGYYVSDYAMAYWGQGTLVTVSSASTKGPSVFPLAPSSKSTSGGTAALGCLVKDYFPEPVTVSWNSGALTSGVHTFPAVLQSSGLYSLSSVVTVPSSSLGTQTYICNVNHKPSNTKVDKKVEPKSCDKTHTCPPCPAPELLGPSVFLFPPKPKDTLMISRTPEVTCVVVDVSHEDPEVKFNWYVDGVEVHNAKTKPREEQYNSTYRVVSVLTVLHQDWLNGKEYKCKVSNKALPAPIEKTISKAKGQPREPQVYTLPPSREEMTKNQVSLTCLVKGFYPSDIAVEWESNGQPENNYKTTPPVLDSDGSFFLYSKLTVDKSRWQQGNVFSCSVMHEALHNHYTQKSLSLSPGGGGGSGGGGSGGGGSGGGGSEVQLVESGGGLVQPGGSLRLSCAASGFTFTNYGLHWVRQAPGKGLEWVSSISPSGGVTYYRDSVKGRFTISRDNSKNTLYLQMNSLRAEDTAVYYCAKPFLGWGGANWIAHWGQGTLVTVSSGGGGSGGGGSGGGGSGGGGSDIQMTQSPSSLSASVGDRVTITCLASEDISNDLAWYQQKPGKAPKLLIYFVDRLLDGVPSRFSGSGSGTDFTLTISSLQPEDFATYYCQQSYKYPPTFGQGTKLEIK light: DIQLTQSPSSLSASVGDRVTITCRAGESVDIFGVGFLHWYQQKPGKAPKLLIYRASNLESGVPSRFSGSGSRTDFTLTISSLQPEDFATYYCQQTNEDPYTFGQGTKVEIKRTVAAPSVFIFPPSDEQLKSGTASVVCLLNNFYPREAKVQWKVDNALQSGNSQESVTEQDSKDSTYSLSSTLTLSKADYEKHKVYACEVTHQGLSSPVTKSFNRGEC
binds | Ly421 (bispecific antibody, human IgG1, kappa, Ly312 HC (IgG1 mutated Fc)-Ly253 scFv VL-VH + Ly312 LC) heavy: not shown light: DIQLTQSPSSLSASVGDRVTITCRAGESVDIFGVGFLHWYQQKPGKAPKLLIYRASNLESGVPSRFSGSGSRTDFTLTISSLQPEDFATYYCQQTNEDPYTFGQGTKVEIKRTVAAPSVFIFPPSDEQLKSGTASVVCLLNNFYPREAKVQWKVDNALQSGNSQESVTEQDSKDSTYSLSSTLTLSKADYEKHKVYACEVTHQGLSSPVTKSFNRGEC
binds | Ly422 (bispecific antibody, human IgG1, kappa, Ly312 HC (IgG1 mutated Fc)-Ly253 scFv VH-VL + Ly312 LC) heavy: not shown light: DIQLTQSPSSLSASVGDRVTITCRAGESVDIFGVGFLHWYQQKPGKAPKLLIYRASNLESGVPSRFSGSGSRTDFTLTISSLQPEDFATYYCQQTNEDPYTFGQGTKVEIKRTVAAPSVFIFPPSDEQLKSGTASVVCLLNNFYPREAKVQWKVDNALQSGNSQESVTEQDSKDSTYSLSSTLTLSKADYEKHKVYACEVTHQGLSSPVTKSFNRGEC
binds | Ly417 (bispecific antibody, human IgG1, kappa, Ly311 HC (IgG1 mutated Fc)-Ly253 scFv VL-VH + Ly311 LC) heavy: not shown light: DIQLTQSPSSLSASVGDRVTITCKASQDVGTSVAWYQQKPGKAPKLLIYWTSTRHTGVPSRFSGSGSGTDFTFTISSLQPEDIATYYCQQYSLYRSFGQGTKVEIKRTVAAPSVFIFPPSDEQLKSGTASVVCLLNNFYPREAKVQWKVDNALQSGNSQESVTEQDSKDSTYSLSSTLTLSKADYEKHKVYACEVTHQGLSSPVTKSFNRGEC
binds | Ly418 (bispecific antibody, human IgG1, kappa, Ly311 HC (IgG1 mutated Fc)-Ly253 scFv VH-VL + Ly311 LC) heavy: not shown light: DIQLTQSPSSLSASVGDRVTITCKASQDVGTSVAWYQQKPGKAPKLLIYWTSTRHTGVPSRFSGSGSGTDFTFTISSLQPEDIATYYCQQYSLYRSFGQGTKVEIKRTVAAPSVFIFPPSDEQLKSGTASVVCLLNNFYPREAKVQWKVDNALQSGNSQESVTEQDSKDSTYSLSSTLTLSKADYEKHKVYACEVTHQGLSSPVTKSFNRGEC
